Values joined by “and” are separate entries in the source; they are usually repeats but may differ in a detail not shown here. Equal values may be shown once. “Also recorded” adds a separate entry of the source.
B1: 1G5: mouse mAb IgG1, k binding both FC5 and DIE3IR, no effect on hNav1.7 currents; negative control; SEQ ID NO: 21 and 27 (antibody, V domains shown)
VH: QVQLQQPGAELVKPGASVKLSCKASGYTFTSYWINWVKQRPGQGLEWIGNIYPGNSNTNYNEKFKSKATLTVDKSSSTAYMQLSSLTSEDSAVYYCARRYYYDYDDAMDYWGQGTSVTVSSAKTTPPSVYPLAP
VL: DIVLTQSPASLAVSLGQRATISCRASESVDSYGNGFMHWYQQKPGQPPKLLIYRASNLESGIPARVSGSGSRTDFTLTINPVEADDVATYYCQQSNEDPWTFGGGTKLEIKRADAAPTVSIFPPSS
modifications: Heavy chain of the 1G5 and 1G9 antibodies without leader sequence; Light chain of the 1G5 and 1G9 antibodies without leader sequence

Columns and labels:
[1] = system: glioblastoma U87MGvIII cells; experiment: Soft agar assay, U87MGvIII
[2] = system: lung metastasis of prostate cancer; conditions: rat, in vivo; cited from earlier work
glioblastoma U87MG cells = experiment: Soft agar assay, U87MG
[3] = system: ovarian cancer SKOV-3 cells; experiment: Soft agar assay, SKOV-3
FC5DIE3IR [4] = target: T1, FC5DIE3IR (Homo sapiens, UniProt Q15858); experiment: Surface Plasmon Resonance of mAbs, FC5DIE3IR; format: binding; conditions: Fc-captured mAb, FC5-DIE3IR flowed; SCK; 25 °C
T1 construct: The supernatant was collected and loaded on a 5 ml MabSelect™ SuRe™ column; made in house; host or cells: CHO-3E7 (transient, pTT5 vector), purified from supernatant
Experimental: (§1) Surface Plasmon Resonance of mAbs. FC5 and FC5DIE3IR proteins were SEC purified using a Superdex 75 column (GE Healthcare) connected to an AKTAPurifier (GE Healthcare) in HBS-EP+ running buffer (10 mM HEPES, pH 7.4, containing 150 mM NaCl, 3 mM EDTA and 0.05% P20) at a flow rate of 1 ml/min. Monomeric eluted peaks were used to flow over Fc-capture 3A8 mAb surfaces. To prepare the 3A8 mAb surfaces, approximately 6000 RUs of anti-mouse IgG (GE Healthcare) was first immobilized on CM5 Series S sensor chips (GE Healthcare) at pH 5.0, using standard amine coupling methods previously reported (Hussack et al., 2011) and according to the manufacturer's instructions (GE Healthcare). HBS-EP running buffer used for SPR experiments. The mAb 3A8 was captured on the anti-mouse IgG surface using 10 μg/ml of mAb, 30 sec contact time and flow rate of 10 μl/min. IMAC-purified DI-D VHH was passed through a Superdex 75 (GE Healthcare) column for SEC purification in HBS-EP buffer (10 mM HEPES, pH 7.4, containing 150 mM NaCl, 3 mM EDTA and 0.005% P20), connected to an AKTAPurifier (GE Healthcare) at a flow rate of 1 ml/min. Test binding experiments of FC5 control and FC5DIE3IR involved flowing 1 μM concentrations of SEC-pure material over the mAb surface at a flow rate of 30 μl/min for 5 min. Surfaces could be regenerated using 10 mM glycine, pH 1.7, with a 120 sec pulse at 20 μl/min. All SPR experiments were evaluated with Biacore T200 Software v 3.0. For kinetic analysis, single cycle kinetic analysis was used by flowing a range of FC5DIE3IR concentrations (320 nM-20 nM) at a flow rate of 30 μl/min, with 600 sec contact time and 1200 sec dissociation. Regeneration conditions were the same as above. Data were fit to a 1:1 binding model and analyzed using the Biacore T200 Software v3.0.
(§2) Surfaces were regenerated by washing with running buffer (HBS-EP). Data were analyzed with BIAevaluation 4.1 software as described (Hussack et al., 2011) and affinities determined using the steady state binding model.
(§3) Surface Plasmon Resonance (SPR) for monoclonal antibodies.

VHH FC5 = experiment: Surface Plasmon Resonance of mAbs, FC5 control; format: binding; conditions: 25 °C
Sequence of VHH FC5 (as listed by the source): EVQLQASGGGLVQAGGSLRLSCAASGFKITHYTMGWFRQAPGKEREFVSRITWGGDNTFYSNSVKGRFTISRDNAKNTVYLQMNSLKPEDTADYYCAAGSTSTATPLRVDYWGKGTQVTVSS
Experimental: as §1, §2, §3

hNav1.7 channels = hNav1.7 channels (Homo sapiens, UniProt Q15858, W1161R); experiment: Patch-clamp whole-cell recordings in hNav1.7-HEK293 cells; format: cell-based; conditions: example recordings; 1-3 μM
CHO-3E7 = experiment: Cell-ELISA on live CHO-3E7 cells; format: cell-based, Chinese hamster; conditions: hybridoma supernatant; OD450 nm; duplicate 1
Experimental: Cell-ELISA. Sterile 96-well plates (Costar #3595) were pre-treated with 50 μl/well of branched polyethyleneimine (PEI, Sigma Cat #408727) at 25 μg/ml in PBS for 30 min at room temperature. PEI was removed and CHO-3E7 or hNAv1.7-CHO (ChanTest cat #CT4003) were seeded at 6×10^5 cells per well in FreeStyle F17 Expression Medium (Gibco Cat #A1383501) and incubated overnight at 37° C., 5% CO2. Microplates were blocked with Starting block (Thermofisher Cat #37538) for 30 min at room temperature, and 50 μl of hybridoma supernatants were added and incubated at 4° C. for 3 h. Plates were washed 5 times with PBS and incubated for one hour at 4° C. with 50 μl of secondary antibody HRP-conjugated F(ab′)2 goat anti-mouse IgG (H+L) (Jackson Immunoresearch #115-036-062) diluted 1/5000 in blocking buffer. After 10 washes with PBS, 50 μl of TMB substrate solution (Pierce Cat #34021) was added and further incubated for 60 min at room temperature. Twenty-five μl/well of stop solution ([…] 1M) was added and OD450 nm measurements were done using a microplate reader (Spectramax 340 PC, Molecular Devices).

FC5DIE3IR [5] = target: T1, FC5DIE3IR; experiment: Evaluation of apparent affinity of purified mAbs in ELISA; format: binding; conditions: purified mAb, OD 405 nm
Experimental: Screening. Hybridoma supernatants were screened by ELISA to detect specific binders. To this end, 96-well half-area plates (Costar #3690) were coated with 25 μl of FC5DIE3IR or FC5-VHH or FC5-hFc-1X0 at 5 μg/ml in PBS and incubated overnight at 4° C. Microplates were washed 3 times with PBS, blocked with PBS-BSA 1%, and 25 μl of hybridoma supernatants were added and incubated at 37° C., 5% CO2 for 2 hours. Plates were washed 4 times with PBS-Tween 20 0.05% and incubated for one hour at 37° C., 5% CO2 with 25 μl of secondary antibody alkaline phosphatase conjugated F(ab′)2 goat anti-mouse IgG Fc-gamma specific (Jackson Immunoresearch #115-056-071) diluted 1/3000 in blocking buffer. After 4 washes with PBS-Tween 20 0.05%, 25 μl of a 1 mg/ml pNPP substrate solution was added and further incubated for one hour at 37° C. OD405 nm measurements were done using a microplate reader (Spectramax 340 PC, Molecular Devices).
Evaluation of apparent affinity in ELISA. Purified antibodies were assessed for their binding activity by ELISA in a dose-dependent binding curve. […] The data were analyzed with GraphPad Prism software using one-site specific binding-with Hill slope non-linear regression curve fit model to determine Bmax (maximum specific binding) and Kdapp (concentration needed to achieve a half-maximum binding at equilibrium) for each mAb tested. […]

FC5DIE3IR [6] = target: T1, FC5DIE3IR; experiment: Hydrogen-Deuterium Exchange Mass Spectrometry (HDX-MS); format: binding; conditions: labelling 1, 10 and 60 min

Molecule | Reduction of colony formation [1] | Reduction of the number of lung metastasis [2] | Reduction of colony formation (glioblastoma U87MG cells) | Reduction of colony formation [3] | ka (FC5DIE3IR [4]) | kd (FC5DIE3IR [4]) | Binding to FC5 control (comment, in words) (VHH FC5; SPR) | ka (VHH FC5; target FC5) | kd (VHH FC5; target FC5) | Effect on hNav1.7 currents (in words) (hNav1.7 channels) | ELISA on live cells (duplicates) CHO-3E7 (CHO-3E7) | Bmax (maximum specific binding) (FC5DIE3IR [5]) | Stabilization of FC5DIE3IR in response to mAb binding (residues, differential HDX-MS) (FC5DIE3IR [6])
NC1=N[C@H](O)[C@H]2[C@H]3O[C@]4(O)O[C@@H]([C@@H](O)[C@@]2(N1)[C@@H]4O)[C@]3(O)CO [TTX, tetrodotoxin, reference compound] | 55% | > 40% | 75% and 84% | 70% |  |  |  |  |  |  |  |  | 
B1 |  |  |  |  | 72900 M⁻¹ s⁻¹ | 0.0136 s⁻¹ | Binding to both | 289000 M⁻¹ s⁻¹ | 0.017 s⁻¹ | no effect; also recorded: did not reduce hNav1.7 currents | 0.008 | 1.7 | no effect on conformational stability

Reference: US11945858B2, “Antibodies and antibody fragments against HNAV1.7 channel and their use in pain and cancer indications” (NATIONAL RESEARCH COUNCIL OF CANADA, priority 2018, dated 2024)
